# Target: S2 fragment of the S protein (SARS-CoV-2)
# Assay: SEC
substance,measurement,value
S2 fragment of the S protein (domain or fragment),stoichiometry N,3

# — article PMC8139424
